Experimental data published in US20230242607A1 (EUTILEX, published 2023).
Positions count from the first letter of the chain named. Like-named read-outs stand apart in the source and are kept apart here.

T1: IL2-RB (UniProt P14784 27-239, limits assumed)
T1 construct: Bought recombinant protein (Sino); also called CD122; IL-2Rβ
T1 sequence (looked up): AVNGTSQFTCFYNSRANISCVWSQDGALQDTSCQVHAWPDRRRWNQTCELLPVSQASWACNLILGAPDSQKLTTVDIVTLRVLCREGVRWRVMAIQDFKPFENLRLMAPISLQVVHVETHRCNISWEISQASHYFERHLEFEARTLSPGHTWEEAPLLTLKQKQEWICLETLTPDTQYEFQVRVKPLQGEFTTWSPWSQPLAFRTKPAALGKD

T2: IL2-RA (UniProt P01589 22-213, limits assumed)
T2 construct: Bought recombinant protein (Sino); also called CD25; IL-2Rα
T2 sequence (looked up): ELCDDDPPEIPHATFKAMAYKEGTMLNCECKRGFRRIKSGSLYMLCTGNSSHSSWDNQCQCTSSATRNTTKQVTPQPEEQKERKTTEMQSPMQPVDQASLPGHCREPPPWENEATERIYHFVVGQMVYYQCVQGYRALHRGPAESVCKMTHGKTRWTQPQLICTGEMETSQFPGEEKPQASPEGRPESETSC

B1: IL2_V1 Fc fusion protein (Fc fusion)
chain: APTSSSTKKTQLQLEHLLLDLQMILNGINNYKNPKLTAMLTKKFYMPKKATELKHLQCLEEELKPLEEVLNLAQSKNFHLDPRDVVSNINVFVLELKGSETTFMCEYADETATIVEFLNRWITFCQSIISTLTGGGGSSNTKVDKRVEPKSCDKTHTCPPCPAPPVAGPSVFLFPPKPKDTLMISRTPEVTCVVVDVSHEDPEVQFNWYVDGVEVHNAKTKPREEQFNSTFRVVSVLTVVHQDWLNGKEYKCKVSNKGLPAPIEKTISKTKGQPREPQVYTLPPSREEMTKNQVSLTCLVKGFYPSDIAVEWESNGQPENNYKTTPPMLDSDGSFFLYSKLTVDKSRWQQGNVFSCSVMHEALHNHYTQKSLSLSPGK
B2: IL2_V2 Fc fusion protein (Fc fusion)
chain: B1 chain with L80F, D81R
B3: IL2_V3 Fc fusion protein (Fc fusion)
chain: B1 chain with L80F, V85L
B4: IL2_V4 Fc fusion protein (Fc fusion)
chain: B1 chain with L80F, V86I
B5: IL2_V4_F42A Fc fusion protein (Fc fusion)
chain: B1 chain with A38R, K42A, L80F, V86I
B6: IL2_V4_R38A Fc fusion protein (Fc fusion)
chain: B1 chain with K42F, L80F, V86I
B7: IL2_V4_R38A_F42A Fc fusion protein (Fc fusion)
chain: B1 chain with K42A, L80F, V86I
B8: IL2_V5 Fc fusion protein (Fc fusion)
chain: B1 chain with L80F, F92I
B9: supMD IL-2 Fc fusion protein (Fc fusion)
chain: B1 chain with L80F

Legend:
Experiment in all cases: SPR, Biacore T200; IL-2-Fc on CM5 chip, receptor injected; 1:1 model
IL2-RB [1] = biological target: T1, IL2-RB
Procedure: The affinity of IL-2 variants to IL-2 receptors, IL2-RA and IL2-RB, was analyzed using surface plasmon resonance (SPR). The IL-2 variants were diluted to a concentration of 2 ug/mL then immobilized on CM5 chip (GE Healthcare, Cat#BR-1005-30). The receptors IL-2RA or IL-2RB (Sino) were injected at concentrations 100, 50, 25, 12.5, 6.25, 3.125 nM with an association time of 150 seconds and dissociation time of 240 seconds. Biacore T200 (GE healthcare) was used to measure and analyze affinity of each IL-2 variant, where the results were analyzed with a 1:1 binding model by BIAevaluation software.

IL2-RB [2] = biological target: T1, IL2-RB; remark: listed apart in the source
Procedure: (§1) The affinity of additional IL-2 variants to IL-2 receptors, IL2-RA and IL2-RB, was analyzed using surface plasmon resonance (SPR). The IL-2 variants were diluted to a concentration of 2 ug/mL then immobilized on CM5 chip (GE Healthcare, Cat#BR-1005-30). Biacore T200 (GE healthcare) was used to measure and analyze affinity of each IL-2 variant, where the results were analyzed with a 1:1 binding model by BIAevaluation software, as described in Example 4.

IL2-RA = biological target: T2, IL2-RA
Procedure: as §1

Binder	Kd (IL2-RB [1]) [nM]	koff (IL2-RB [1]) [s⁻¹]	kon (IL2-RB [1]) [M⁻¹ s⁻¹]	Kd (IL2-RB [2]) [nM]	koff (IL2-RB [2]) [s⁻¹]	kon (IL2-RB [2]) [M⁻¹ s⁻¹]	Kd (IL2-RA) [nM]	koff (IL2-RA) [s⁻¹]	kon (IL2-RA) [M⁻¹ s⁻¹]
B1	66.6	0.0116	174000	–	–	–	–	–	–
B2	124	0.0158	128000	–	–	–	–	–	–
B3	218	0.0179	82400	–	–	–	–	–	–
B4	29	0.00511	176000	8.99	0.00532	592000	–	–	–
B5	–	–	–	9.43	0.00492	522000	6.75	0.000789	117000
B6	–	–	–	7.33	0.00556	759000	3.31	0.00227	685000
B7	–	–	–	7.5	0.00504	671000	1230	0.00562	4560
B8	76.7	0.00936	122000	–	–	–	–	–	–
B9	29.5	0.004	136000	–	–	–	–	–	–
